Ki data for 6 molecules are collected here from patent US20200024322A1 (Eli Lilly, published 2020).

Numbered stars: 1 amine (or outer) side, 2 acyl side, 3 side chain; on linkers, the order of the positions; unused ones are H or OH. Square brackets hold non-standard residues; d marks the D form. Side chains are listed from the residue outwards. Ends that are not written are not given here. * marks the point of attachment. C20 diacid = O=C(O)CCCCCCCCCCCCCCCCCCC(=O)*; C18 diacid = O=C(O)CCCCCCCCCCCCCCCCC(=O)*; γGlu = O=C(O)[C@H](CCC(=O)[*:2])N[*:1]; AEEA = NCCOCCOCC(=O)O; Aib = CC(C)(N)C(=O)O

First the molecules themselves.
B1: Example 266 (peptide)
peptide: Y[Aib]EGTFTSDYSILLDKK([AEEA-AEEA-γGlu-C18 diacid])AQ[Aib]AFIEYLIEGGPSSG-NH2
modifications: N-terminus assumed
SMILES: CC[C@H](C)[C@H](NC(=O)[C@H](CC(C)C)NC(=O)[C@H](Cc1ccc(O)cc1)NC(=O)[C@H](CCC(=O)O)NC(=O)[C@@H](NC(=O)[C@H](Cc1ccccc1)NC(=O)[C@H](C)NC(=O)C(C)(C)NC(=O)[C@H](CCC(N)=O)NC(=O)[C@H](C)NC(=O)[C@H](CCCCNC(=O)COCCOCCNC(=O)COCCOCCNC(=O)CC[C@H](NC(=O)CCCCCCCCCCCCCCCCC(=O)O)C(=O)O)NC(=O)[C@H](CCCCN)NC(=O)[C@H](CC(=O)O)NC(=O)[C@H](CC(C)C)NC(=O)[C@H](CC(C)C)NC(=O)[C@@H](NC(=O)[C@H](CO)NC(=O)[C@H](Cc1ccc(O)cc1)NC(=O)[C@H](CC(=O)O)NC(=O)[C@H](CO)NC(=O)[C@@H](NC(=O)[C@H](Cc1ccccc1)NC(=O)[C@@H](NC(=O)CNC(=O)[C@H](CCC(=O)O)NC(=O)C(C)(C)NC(=O)[C@@H](N)Cc1ccc(O)cc1)[C@@H](C)O)[C@@H](C)O)[C@@H](C)CC)[C@@H](C)CC)C(=O)N[C@@H](CCC(=O)O)C(=O)NCC(=O)NCC(=O)N1CCC[C@H]1C(=O)N[C@@H](CO)C(=O)N[C@@H](CO)C(=O)NCC(N)=O
B2: Example 317 (peptide)
peptide: Y[Aib]EGTFTSDYSILLDKK([AEEA-AEEA-γGlu-C20 diacid])AQ[Aib]AFIEYLIAGGPSSG-NH2
modifications: N-terminus assumed
SMILES: CC[C@H](C)[C@H](NC(=O)[C@H](CC(C)C)NC(=O)[C@H](Cc1ccc(O)cc1)NC(=O)[C@H](CCC(=O)O)NC(=O)[C@@H](NC(=O)[C@H](Cc1ccccc1)NC(=O)[C@H](C)NC(=O)C(C)(C)NC(=O)[C@H](CCC(N)=O)NC(=O)[C@H](C)NC(=O)[C@H](CCCCNC(=O)COCCOCCNC(=O)COCCOCCNC(=O)CC[C@H](NC(=O)CCCCCCCCCCCCCCCCCCC(=O)O)C(=O)O)NC(=O)[C@H](CCCCN)NC(=O)[C@H](CC(=O)O)NC(=O)[C@H](CC(C)C)NC(=O)[C@H](CC(C)C)NC(=O)[C@@H](NC(=O)[C@H](CO)NC(=O)[C@H](Cc1ccc(O)cc1)NC(=O)[C@H](CC(=O)O)NC(=O)[C@H](CO)NC(=O)[C@@H](NC(=O)[C@H](Cc1ccccc1)NC(=O)[C@@H](NC(=O)CNC(=O)[C@H](CCC(=O)O)NC(=O)C(C)(C)NC(=O)[C@@H](N)Cc1ccc(O)cc1)[C@@H](C)O)[C@@H](C)O)[C@@H](C)CC)[C@@H](C)CC)C(=O)N[C@@H](C)C(=O)NCC(=O)NCC(=O)N1CCC[C@H]1C(=O)N[C@@H](CO)C(=O)N[C@@H](CO)C(=O)NCC(N)=O
B3: Example 321 (peptide)
peptide: Y[Aib]EGTFTSDYSILLDKK([AEEA-AEEA-γGlu-C18 diacid])AQ[Aib]TFIEYLIEGGPSSG-NH2
modifications: N-terminus assumed
SMILES: CC[C@H](C)[C@H](NC(=O)[C@H](CC(C)C)NC(=O)[C@H](Cc1ccc(O)cc1)NC(=O)[C@H](CCC(=O)O)NC(=O)[C@@H](NC(=O)[C@H](Cc1ccccc1)NC(=O)[C@@H](NC(=O)C(C)(C)NC(=O)[C@H](CCC(N)=O)NC(=O)[C@H](C)NC(=O)[C@H](CCCCNC(=O)COCCOCCNC(=O)COCCOCCNC(=O)CC[C@H](NC(=O)CCCCCCCCCCCCCCCCC(=O)O)C(=O)O)NC(=O)[C@H](CCCCN)NC(=O)[C@H](CC(=O)O)NC(=O)[C@H](CC(C)C)NC(=O)[C@H](CC(C)C)NC(=O)[C@@H](NC(=O)[C@H](CO)NC(=O)[C@H](Cc1ccc(O)cc1)NC(=O)[C@H](CC(=O)O)NC(=O)[C@H](CO)NC(=O)[C@@H](NC(=O)[C@H](Cc1ccccc1)NC(=O)[C@@H](NC(=O)CNC(=O)[C@H](CCC(=O)O)NC(=O)C(C)(C)NC(=O)[C@@H](N)Cc1ccc(O)cc1)[C@@H](C)O)[C@@H](C)O)[C@@H](C)CC)[C@@H](C)O)[C@@H](C)CC)C(=O)N[C@@H](CCC(=O)O)C(=O)NCC(=O)NCC(=O)N1CCC[C@H]1C(=O)N[C@@H](CO)C(=O)N[C@@H](CO)C(=O)NCC(N)=O
B4: Example 318 (peptide)
peptide: Y[Aib]EGTFTSDYSILLDKK([AEEA-AEEA-γGlu-C20 diacid])AQ[Aib]EFIEYLIAGGPSSG-NH2
modifications: N-terminus assumed
SMILES: CC[C@H](C)[C@H](NC(=O)[C@H](CC(C)C)NC(=O)[C@H](Cc1ccc(O)cc1)NC(=O)[C@H](CCC(=O)O)NC(=O)[C@@H](NC(=O)[C@H](Cc1ccccc1)NC(=O)[C@H](CCC(=O)O)NC(=O)C(C)(C)NC(=O)[C@H](CCC(N)=O)NC(=O)[C@H](C)NC(=O)[C@H](CCCCNC(=O)COCCOCCNC(=O)COCCOCCNC(=O)CC[C@H](NC(=O)CCCCCCCCCCCCCCCCCCC(=O)O)C(=O)O)NC(=O)[C@H](CCCCN)NC(=O)[C@H](CC(=O)O)NC(=O)[C@H](CC(C)C)NC(=O)[C@H](CC(C)C)NC(=O)[C@@H](NC(=O)[C@H](CO)NC(=O)[C@H](Cc1ccc(O)cc1)NC(=O)[C@H](CC(=O)O)NC(=O)[C@H](CO)NC(=O)[C@@H](NC(=O)[C@H](Cc1ccccc1)NC(=O)[C@@H](NC(=O)CNC(=O)[C@H](CCC(=O)O)NC(=O)C(C)(C)NC(=O)[C@@H](N)Cc1ccc(O)cc1)[C@@H](C)O)[C@@H](C)O)[C@@H](C)CC)[C@@H](C)CC)C(=O)N[C@@H](C)C(=O)NCC(=O)NCC(=O)N1CCC[C@H]1C(=O)N[C@@H](CO)C(=O)N[C@@H](CO)C(=O)NCC(N)=O
B5: Example 272 (peptide)
peptide: Y[Aib]EGTFTSDYSILLDKK([AEEA-AEEA-γGlu-C18 diacid])AQ[Aib]AFIEYLIAGGPSSG-NH2
modifications: N-terminus assumed
SMILES: CC[C@H](C)[C@H](NC(=O)[C@H](CC(C)C)NC(=O)[C@H](Cc1ccc(O)cc1)NC(=O)[C@H](CCC(=O)O)NC(=O)[C@@H](NC(=O)[C@H](Cc1ccccc1)NC(=O)[C@H](C)NC(=O)C(C)(C)NC(=O)[C@H](CCC(N)=O)NC(=O)[C@H](C)NC(=O)[C@H](CCCCNC(=O)COCCOCCNC(=O)COCCOCCNC(=O)CC[C@H](NC(=O)CCCCCCCCCCCCCCCCC(=O)O)C(=O)O)NC(=O)[C@H](CCCCN)NC(=O)[C@H](CC(=O)O)NC(=O)[C@H](CC(C)C)NC(=O)[C@H](CC(C)C)NC(=O)[C@@H](NC(=O)[C@H](CO)NC(=O)[C@H](Cc1ccc(O)cc1)NC(=O)[C@H](CC(=O)O)NC(=O)[C@H](CO)NC(=O)[C@@H](NC(=O)[C@H](Cc1ccccc1)NC(=O)[C@@H](NC(=O)CNC(=O)[C@H](CCC(=O)O)NC(=O)C(C)(C)NC(=O)[C@@H](N)Cc1ccc(O)cc1)[C@@H](C)O)[C@@H](C)O)[C@@H](C)CC)[C@@H](C)CC)C(=O)N[C@@H](C)C(=O)NCC(=O)NCC(=O)N1CCC[C@H]1C(=O)N[C@@H](CO)C(=O)N[C@@H](CO)C(=O)NCC(N)=O
B6: Example 322 (peptide)
peptide: Y[Aib]EGTFTSDYSILLDKK([AEEA-AEEA-γGlu-C18 diacid])AQ[Aib]HFIEYLIEGGPSSG-NH2
modifications: N-terminus assumed
SMILES: CC[C@H](C)[C@H](NC(=O)[C@H](CC(C)C)NC(=O)[C@H](Cc1ccc(O)cc1)NC(=O)[C@H](CCC(=O)O)NC(=O)[C@@H](NC(=O)[C@H](Cc1ccccc1)NC(=O)[C@H](Cc1c[nH]cn1)NC(=O)C(C)(C)NC(=O)[C@H](CCC(N)=O)NC(=O)[C@H](C)NC(=O)[C@H](CCCCNC(=O)COCCOCCNC(=O)COCCOCCNC(=O)CC[C@H](NC(=O)CCCCCCCCCCCCCCCCC(=O)O)C(=O)O)NC(=O)[C@H](CCCCN)NC(=O)[C@H](CC(=O)O)NC(=O)[C@H](CC(C)C)NC(=O)[C@H](CC(C)C)NC(=O)[C@@H](NC(=O)[C@H](CO)NC(=O)[C@H](Cc1ccc(O)cc1)NC(=O)[C@H](CC(=O)O)NC(=O)[C@H](CO)NC(=O)[C@@H](NC(=O)[C@H](Cc1ccccc1)NC(=O)[C@@H](NC(=O)CNC(=O)[C@H](CCC(=O)O)NC(=O)C(C)(C)NC(=O)[C@@H](N)Cc1ccc(O)cc1)[C@@H](C)O)[C@@H](C)O)[C@@H](C)CC)[C@@H](C)CC)C(=O)N[C@@H](CCC(=O)O)C(=O)NCC(=O)NCC(=O)N1CCC[C@H]1C(=O)N[C@@H](CO)C(=O)N[C@@H](CO)C(=O)NCC(N)=O

One experiment deals with T1, human GLP-1 receptor (human, UniProt P43220 24-463).
T1 construct: whole, on cells; also called hGLP-1R; hGLP1R
Nature of the experiment: [125I]-GLP-1 competition SPA, hGLP-1R membranes. A digest of the protocol:
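Kᵢ values are geometric means (SEM) over replicates run on separate days, derived from IC₅₀ of four-parameter curve fits. Buffer: HEPES 25 mM pH 7.4 with CaCl₂ 2.5 mM, MgCl₂ 1 mM, bacitracin 0.1%, TWEEN-20 0.003%, EDTA-free protease inhibitors.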
What is called Ki is a measure of affinity in units of concentration, obtained from inhibition or displacement. A high value points to a looser hold on the target. The molecule B1 displayed a Ki of 2.01 nM.

For B2, the Ki came out at 2.63 nM.

B3 showed a Ki of 4.2 nM.

The molecule B4 had an inhibitory constant (Ki) of 7.52 nM. This Ki is about 1.8-fold higher than that of the molecule before.

B5: the Ki was determined as 1.22 nM.

As for B6, the Ki was found to be 2.31 nM.

A further experiment deals with T2, human GIP receptor (human, UniProt P48546 22-466).
T2 construct: whole, on cells; also called hGIPR; hGIP-R
T2 sequence (looked up): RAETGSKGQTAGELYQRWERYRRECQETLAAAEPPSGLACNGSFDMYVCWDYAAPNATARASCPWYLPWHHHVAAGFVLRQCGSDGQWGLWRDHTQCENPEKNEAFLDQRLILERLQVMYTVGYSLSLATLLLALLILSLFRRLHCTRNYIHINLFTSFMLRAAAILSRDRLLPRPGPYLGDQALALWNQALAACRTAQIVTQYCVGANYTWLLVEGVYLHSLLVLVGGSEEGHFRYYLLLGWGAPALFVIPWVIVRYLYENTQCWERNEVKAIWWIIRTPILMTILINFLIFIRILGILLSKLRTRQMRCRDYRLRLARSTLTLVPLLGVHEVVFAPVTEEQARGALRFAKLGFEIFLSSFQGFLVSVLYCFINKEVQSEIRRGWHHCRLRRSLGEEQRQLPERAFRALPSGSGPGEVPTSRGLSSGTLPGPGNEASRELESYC
Nature of the experiment: [125I]-GIP competition SPA, hGIPR membranes.
In turn, B1 displayed a Ki of 0.0666 nM. In other words, the picomolar range.

Consider B2, for which the Ki is 0.0215 nM.

As to B3, the affinity corresponds to a Ki of 0.064 nM.

In the case of B4, the affinity, expressed as Ki, was 0.0452 nM. The Ki values of the last two molecules are within 1.5-fold of each other.

Take B5: affinity was put at a Ki of 0.0353 nM.

In turn, B6 yielded a Ki of 0.175 nM.

The target in the next experiment is T3, human glucagon receptor (human, UniProt P47871 26-477).
T3 construct: whole, on cells; also called hGcgR; GcgR
T3 sequence (P47871 26-477): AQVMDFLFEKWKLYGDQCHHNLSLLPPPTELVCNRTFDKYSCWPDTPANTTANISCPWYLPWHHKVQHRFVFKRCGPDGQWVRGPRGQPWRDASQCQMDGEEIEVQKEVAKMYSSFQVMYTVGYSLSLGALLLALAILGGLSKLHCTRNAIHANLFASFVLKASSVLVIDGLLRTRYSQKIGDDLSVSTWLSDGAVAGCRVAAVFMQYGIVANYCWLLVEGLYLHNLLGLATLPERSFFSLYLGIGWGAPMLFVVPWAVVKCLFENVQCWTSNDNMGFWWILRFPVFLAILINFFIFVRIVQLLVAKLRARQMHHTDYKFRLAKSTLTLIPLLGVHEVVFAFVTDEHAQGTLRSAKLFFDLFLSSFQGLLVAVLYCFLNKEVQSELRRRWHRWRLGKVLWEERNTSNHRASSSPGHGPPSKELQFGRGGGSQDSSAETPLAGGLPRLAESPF
In words: [125I]-Gcg competition SPA, hGcgR membranes.
With B1, the Ki came out at 193 nM.

Turning to B2, the Ki amounted to 253 nM.

Consider B3, for which the affinity corresponds to a Ki of 770 nM.

Molecule B4 displayed a Ki of 730 nM.

Molecule B5 had a Ki of 550 nM.

On to B6, for which the affinity, expressed as Ki, was 1030 nM.
